# In patent US20260001928A1 (CORTERIA PHARMACEUTICALS, priority 2022, published 2026):
# *1 amine or outer side, *2 acyl side, *3 side chain or, on linkers, in order; H or OH if unused. Primed or numbered codes have the meaning given here. Where no end group is shown, it is not given here. Side-chain parts run from the residue outwards. [ ]: non-standard residue; d: D form. The star is where a group is joined. Thp′ = 4-amino-tetrahydro-2H-pyran-4-yl-acetic acid, O=C(CC1(N[*:1])CCOCC1)[*:2]; C18 diacid = O=C(O)CCCCCCCCCCCCCCCCC(=O)*; C16 diacid = O=C(O)CCCCCCCCCCCCCCC(=O)*; γGlu = O=C(O)[C@H](CCC(=O)[*:2])N[*:1]; Thp″ = not defined here; AEEA = NCCOCCOCC(=O)O
# T1: CRF1R receptor (UniProt P34998 24-415, limits assumed)
# T1 sequence (looked up): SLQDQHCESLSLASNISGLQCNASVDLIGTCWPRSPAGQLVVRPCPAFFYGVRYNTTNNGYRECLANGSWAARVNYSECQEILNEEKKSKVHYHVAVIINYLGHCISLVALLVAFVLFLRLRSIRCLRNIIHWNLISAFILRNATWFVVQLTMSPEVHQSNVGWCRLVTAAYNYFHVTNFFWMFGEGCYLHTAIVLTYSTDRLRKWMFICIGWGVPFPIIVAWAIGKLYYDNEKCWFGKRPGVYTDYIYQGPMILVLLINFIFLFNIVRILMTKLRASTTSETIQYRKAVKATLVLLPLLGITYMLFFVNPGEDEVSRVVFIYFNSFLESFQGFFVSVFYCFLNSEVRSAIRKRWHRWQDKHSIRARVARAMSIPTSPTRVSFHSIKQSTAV
# B1: SEQ ID NO 199 (peptide)
# peptide: Ac-IVLSLD[dV]PIKLK([γGlu-C18 diacid])KILLEQEKQKKQREQAETN[Thp′]QILAQV-NH2
# SMILES: CC[C@H](C)[C@H](NC(C)=O)C(=O)N[C@H](C(=O)N[C@@H](CC(C)C)C(=O)N[C@@H](CO)C(=O)N[C@@H](CC(C)C)C(=O)N[C@@H](CC(=O)O)C(=O)N[C@@H](C(=O)N1CCC[C@H]1C(=O)N[C@H](C(=O)N[C@@H](CCCCN)C(=O)N[C@@H](CC(C)C)C(=O)N[C@@H](CCCCNC(=O)CC[C@H](NC(=O)CCCCCCCCCCCCCCCCC(=O)O)C(=O)O)C(=O)N[C@@H](CCCCN)C(=O)N[C@H](C(=O)N[C@@H](CC(C)C)C(=O)N[C@@H](CC(C)C)C(=O)N[C@@H](CCC(=O)O)C(=O)N[C@@H](CCC(N)=O)C(=O)N[C@@H](CCC(=O)O)C(=O)N[C@@H](CCCCN)C(=O)N[C@@H](CCC(N)=O)C(=O)N[C@@H](CCCCN)C(=O)N[C@@H](CCCCN)C(=O)N[C@@H](CCC(N)=O)C(=O)N[C@@H](CCCNC(=N)N)C(=O)N[C@@H](CCC(=O)O)C(=O)N[C@@H](CCC(N)=O)C(=O)N[C@@H](C)C(=O)N[C@@H](CCC(=O)O)C(=O)N[C@H](C(=O)N[C@@H](CC(N)=O)C(=O)NC1(CC(=O)N[C@@H](CCC(N)=O)C(=O)N[C@H](C(=O)N[C@@H](CC(C)C)C(=O)N[C@@H](C)C(=O)N[C@@H](CCC(N)=O)C(=O)N[C@H](C(N)=O)C(C)C)[C@@H](C)CC)CCOCC1)[C@@H](C)O)[C@@H](C)CC)[C@@H](C)CC)C(C)C)C(C)C
# B2: SEQ ID NO 14 (peptide)
# peptide: IVLSLD[dV]PIKLK([γGlu-C16 diacid])QILLKQERQKKQREQAEKNTQILEQV-NH2
# modifications: N-terminus assumed
# SMILES: CC[C@H](C)[C@H](N)C(=O)N[C@H](C(=O)N[C@@H](CC(C)C)C(=O)N[C@@H](CO)C(=O)N[C@@H](CC(C)C)C(=O)N[C@@H](CC(=O)O)C(=O)N[C@@H](C(=O)N1CCC[C@H]1C(=O)N[C@H](C(=O)N[C@@H](CCCCN)C(=O)N[C@@H](CC(C)C)C(=O)N[C@@H](CCCCNC(=O)CC[C@H](NC(=O)CCCCCCCCCCCCCCC(=O)O)C(=O)O)C(=O)N[C@@H](CCC(N)=O)C(=O)N[C@H](C(=O)N[C@@H](CC(C)C)C(=O)N[C@@H](CC(C)C)C(=O)N[C@@H](CCCCN)C(=O)N[C@@H](CCC(N)=O)C(=O)N[C@@H](CCC(=O)O)C(=O)N[C@@H](CCCNC(=N)N)C(=O)N[C@@H](CCC(N)=O)C(=O)N[C@@H](CCCCN)C(=O)N[C@@H](CCCCN)C(=O)N[C@@H](CCC(N)=O)C(=O)N[C@@H](CCCNC(=N)N)C(=O)N[C@@H](CCC(=O)O)C(=O)N[C@@H](CCC(N)=O)C(=O)N[C@@H](C)C(=O)N[C@@H](CCC(=O)O)C(=O)N[C@@H](CCCCN)C(=O)N[C@@H](CC(N)=O)C(=O)N[C@H](C(=O)N[C@@H](CCC(N)=O)C(=O)N[C@H](C(=O)N[C@@H](CC(C)C)C(=O)N[C@@H](CCC(=O)O)C(=O)N[C@@H](CCC(N)=O)C(=O)N[C@H](C(N)=O)C(C)C)[C@@H](C)CC)[C@@H](C)O)[C@@H](C)CC)[C@@H](C)CC)C(C)C)C(C)C
# B3: SEQ ID NO 13 (peptide)
# peptide: IVLSLD[dV]PIKLK([γGlu-C16 diacid])QILLKQERQKKQREQAEKNVQILEQV-NH2
# modifications: N-terminus assumed
# SMILES: CC[C@H](C)[C@H](N)C(=O)N[C@H](C(=O)N[C@@H](CC(C)C)C(=O)N[C@@H](CO)C(=O)N[C@@H](CC(C)C)C(=O)N[C@@H](CC(=O)O)C(=O)N[C@@H](C(=O)N1CCC[C@H]1C(=O)N[C@H](C(=O)N[C@@H](CCCCN)C(=O)N[C@@H](CC(C)C)C(=O)N[C@@H](CCCCNC(=O)CC[C@H](NC(=O)CCCCCCCCCCCCCCC(=O)O)C(=O)O)C(=O)N[C@@H](CCC(N)=O)C(=O)N[C@H](C(=O)N[C@@H](CC(C)C)C(=O)N[C@@H](CC(C)C)C(=O)N[C@@H](CCCCN)C(=O)N[C@@H](CCC(N)=O)C(=O)N[C@@H](CCC(=O)O)C(=O)N[C@@H](CCCNC(=N)N)C(=O)N[C@@H](CCC(N)=O)C(=O)N[C@@H](CCCCN)C(=O)N[C@@H](CCCCN)C(=O)N[C@@H](CCC(N)=O)C(=O)N[C@@H](CCCNC(=N)N)C(=O)N[C@@H](CCC(=O)O)C(=O)N[C@@H](CCC(N)=O)C(=O)N[C@@H](C)C(=O)N[C@@H](CCC(=O)O)C(=O)N[C@@H](CCCCN)C(=O)N[C@@H](CC(N)=O)C(=O)N[C@H](C(=O)N[C@@H](CCC(N)=O)C(=O)N[C@H](C(=O)N[C@@H](CC(C)C)C(=O)N[C@@H](CCC(=O)O)C(=O)N[C@@H](CCC(N)=O)C(=O)N[C@H](C(N)=O)C(C)C)[C@@H](C)CC)C(C)C)[C@@H](C)CC)[C@@H](C)CC)C(C)C)C(C)C
# B4: SEQ ID NO 34 (peptide)
# peptide: VLSLD[dV]PIKLK([γGlu-C16 diacid])KILLEQEKQKKQREQAETNKQILAQV-NH2
# modifications: N-terminus assumed
# SMILES: CC[C@H](C)[C@H](NC(=O)[C@H](CCC(N)=O)NC(=O)[C@H](CCCCN)NC(=O)[C@H](CC(N)=O)NC(=O)[C@@H](NC(=O)[C@H](CCC(=O)O)NC(=O)[C@H](C)NC(=O)[C@H](CCC(N)=O)NC(=O)[C@H](CCC(=O)O)NC(=O)[C@H](CCCNC(=N)N)NC(=O)[C@H](CCC(N)=O)NC(=O)[C@H](CCCCN)NC(=O)[C@H](CCCCN)NC(=O)[C@H](CCC(N)=O)NC(=O)[C@H](CCCCN)NC(=O)[C@H](CCC(=O)O)NC(=O)[C@H](CCC(N)=O)NC(=O)[C@H](CCC(=O)O)NC(=O)[C@H](CC(C)C)NC(=O)[C@H](CC(C)C)NC(=O)[C@@H](NC(=O)[C@H](CCCCN)NC(=O)[C@H](CCCCNC(=O)CC[C@H](NC(=O)CCCCCCCCCCCCCCC(=O)O)C(=O)O)NC(=O)[C@H](CC(C)C)NC(=O)[C@H](CCCCN)NC(=O)[C@@H](NC(=O)[C@@H]1CCCN1C(=O)[C@H](NC(=O)[C@H](CC(=O)O)NC(=O)[C@H](CC(C)C)NC(=O)[C@H](CO)NC(=O)[C@H](CC(C)C)NC(=O)[C@@H](N)C(C)C)C(C)C)[C@@H](C)CC)[C@@H](C)CC)[C@@H](C)O)C(=O)N[C@@H](CC(C)C)C(=O)N[C@@H](C)C(=O)N[C@@H](CCC(N)=O)C(=O)N[C@H](C(N)=O)C(C)C
# B5: SEQ ID NO 199 (peptide)
# peptide: Ac-IVLSLD[dV]PIKLK([γGlu-C18 diacid])KILLEQEKQKKQREQAETN[Thp″]QILAQV-NH2
# modifications: not fully specified; reading uncertain
# B6: SEQ ID NO 13 (peptide)
# peptide: H-IVLSLD[dV]PIKLK([γGlu-C16 diacid])QILLKQERQKKQREQAEKNVQILEQV-NH2
# SMILES: CC[C@H](C)[C@H](N)C(=O)N[C@H](C(=O)N[C@@H](CC(C)C)C(=O)N[C@@H](CO)C(=O)N[C@@H](CC(C)C)C(=O)N[C@@H](CC(=O)O)C(=O)N[C@@H](C(=O)N1CCC[C@H]1C(=O)N[C@H](C(=O)N[C@@H](CCCCN)C(=O)N[C@@H](CC(C)C)C(=O)N[C@@H](CCCCNC(=O)CC[C@H](NC(=O)CCCCCCCCCCCCCCC(=O)O)C(=O)O)C(=O)N[C@@H](CCC(N)=O)C(=O)N[C@H](C(=O)N[C@@H](CC(C)C)C(=O)N[C@@H](CC(C)C)C(=O)N[C@@H](CCCCN)C(=O)N[C@@H](CCC(N)=O)C(=O)N[C@@H](CCC(=O)O)C(=O)N[C@@H](CCCNC(=N)N)C(=O)N[C@@H](CCC(N)=O)C(=O)N[C@@H](CCCCN)C(=O)N[C@@H](CCCCN)C(=O)N[C@@H](CCC(N)=O)C(=O)N[C@@H](CCCNC(=N)N)C(=O)N[C@@H](CCC(=O)O)C(=O)N[C@@H](CCC(N)=O)C(=O)N[C@@H](C)C(=O)N[C@@H](CCC(=O)O)C(=O)N[C@@H](CCCCN)C(=O)N[C@@H](CC(N)=O)C(=O)N[C@H](C(=O)N[C@@H](CCC(N)=O)C(=O)N[C@H](C(=O)N[C@@H](CC(C)C)C(=O)N[C@@H](CCC(=O)O)C(=O)N[C@@H](CCC(N)=O)C(=O)N[C@H](C(N)=O)C(C)C)[C@@H](C)CC)C(C)C)[C@@H](C)CC)[C@@H](C)CC)C(C)C)C(C)C
# B7: SEQ ID NO 150 (peptide)
# peptide: H-IVLSLD[dV]PIKLK([AEEA-AEEA-γGlu-C18 diacid])QILLKQERQKKQREQAEKNKQILEQV-NH2
# SMILES: CC[C@H](C)[C@H](N)C(=O)N[C@H](C(=O)N[C@@H](CC(C)C)C(=O)N[C@@H](CO)C(=O)N[C@@H](CC(C)C)C(=O)N[C@@H](CC(=O)O)C(=O)N[C@@H](C(=O)N1CCC[C@H]1C(=O)N[C@H](C(=O)N[C@@H](CCCCN)C(=O)N[C@@H](CC(C)C)C(=O)N[C@@H](CCCCNC(=O)COCCOCCNC(=O)COCCOCCNC(=O)CC[C@H](NC(=O)CCCCCCCCCCCCCCCCC(=O)O)C(=O)O)C(=O)N[C@@H](CCC(N)=O)C(=O)N[C@H](C(=O)N[C@@H](CC(C)C)C(=O)N[C@@H](CC(C)C)C(=O)N[C@@H](CCCCN)C(=O)N[C@@H](CCC(N)=O)C(=O)N[C@@H](CCC(=O)O)C(=O)N[C@@H](CCCNC(=N)N)C(=O)N[C@@H](CCC(N)=O)C(=O)N[C@@H](CCCCN)C(=O)N[C@@H](CCCCN)C(=O)N[C@@H](CCC(N)=O)C(=O)N[C@@H](CCCNC(=N)N)C(=O)N[C@@H](CCC(=O)O)C(=O)N[C@@H](CCC(N)=O)C(=O)N[C@@H](C)C(=O)N[C@@H](CCC(=O)O)C(=O)N[C@@H](CCCCN)C(=O)N[C@@H](CC(N)=O)C(=O)N[C@@H](CCCCN)C(=O)N[C@@H](CCC(N)=O)C(=O)N[C@H](C(=O)N[C@@H](CC(C)C)C(=O)N[C@@H](CCC(=O)O)C(=O)N[C@@H](CCC(N)=O)C(=O)N[C@H](C(N)=O)C(C)C)[C@@H](C)CC)[C@@H](C)CC)[C@@H](C)CC)C(C)C)C(C)C
# Molecular target: T1, CRF1R receptor
# Assay: cell-based or functional assay
Emax (% I) [%],EC50 [nM],Binder
11,–,B1
24,> 250,B2
24,> 250,B3
0,–,B4

# Molecular target: human corticotropin-releasing factor 2a (CRF2a receptor) (human), Q13324
# Sequence (Q13324 20-411): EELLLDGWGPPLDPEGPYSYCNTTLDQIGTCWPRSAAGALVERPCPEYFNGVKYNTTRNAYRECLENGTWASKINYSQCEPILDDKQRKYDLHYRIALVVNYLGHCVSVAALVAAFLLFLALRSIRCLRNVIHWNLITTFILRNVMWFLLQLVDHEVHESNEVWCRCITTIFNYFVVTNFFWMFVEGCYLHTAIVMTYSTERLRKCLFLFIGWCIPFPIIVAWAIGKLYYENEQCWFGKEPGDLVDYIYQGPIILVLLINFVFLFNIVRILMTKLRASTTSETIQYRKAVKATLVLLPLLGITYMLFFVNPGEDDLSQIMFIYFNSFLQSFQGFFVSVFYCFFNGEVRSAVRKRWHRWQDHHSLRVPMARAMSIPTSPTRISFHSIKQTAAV
# Assay: cell-based or functional assay
row,EC50 [nM] (cAMP),Binder
1,0.16,B5
2,0.15,B6
3,0.25,B7
